Measured values published in the supplement of paper PMC10567573.

B1: ZNF24 (parent)
chain: YGETCFPKGRFERKRNPSRKKQHI
B2: VPS39 (parent)
chain: QQVKCIITEEKVCMVCKKKIGNSA

Variants of: B1
Assay: protein stability index of a GFP-peptide fusion (GPS, HEK-293T) (PSI 1-6); higher = more stable
Details: c terminus: a fixed tail appended
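Further: lentivirally expressed fusions sorted by FACS into six bins by GFP to DsRed ratio, PSI derived from sequencing read proportions per bin multiplied by bin number.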

Protein stability index: each site, then its substitutions
K20: I 2.63 | G 3.29 | F 2.45 | T 2.44 | S 3.17 | H 3.09 | P 2.49 | C 2.1 | Q 2.34 | V 2.66 | R 2.34 | E 2.77 | M 2.08 | Y 2.76 | D 3.48 | L 2.05 | A 3.31 | W 1.99 | N 3.08
H23: C 2.85 | P 3.1 | N 2.85 | G 3.25 | E 2.68 | A 2.42 | K 3.22 | R 2.73 | W 2.3 | S 2.56 | I 2.57 | Y 2.76 | T 2.43 | F 2.95 | M 3.14 | D 2.42 | V 2.78 | L 2.57 | Q 2.95
R13: A 2.96 | Q 2.61 | C 2.33 | W 1.75 | S 3.14 | H 3.21 | Y 2.25 | N 2.87 | D 2.93 | G 2.22 | V 2.19 | P 3 | M 2.15 | L 2.58 | F 2.43 | T 2.3 | K 2.9 | I 2.32 | E 3.1
R15: T 2.46 | V 2.83 | E 2.93 | S 2.79 | F 2.83 | C 2.65 | A 2.76 | Y 2.02 | I 2.28 | L 2.76 | G 2.75 | D 3.17 | K 2.03 | H 2.84 | N 3.2 | W 2.76 | P 3.15 | M 3.17 | Q 2.88
R19: L 2.06 | S 3.38 | I 2 | H 3.22 | V 2.89 | G 2.69 | A 3.07 | E 2.56 | W 2.42 | Y 2.68 | M 2.89 | F 1.83 | K 2.82 | T 3.5 | P 3.28 | Q 2.26 | N 2.86 | D 2.95
P17: G 2.97 | T 3.09 | A 2.56 | Y 2.34 | D 3.58 | H 3.04 | S 2.62 | E 2.93 | M 2.79 | L 2.5 | V 2.25 | F 2.78 | Q 2.95 | W 2.52 | N 3 | R 2.89 | K 2.5 | C 2.37
Q22: I 2.28 | R 2.69 | N 2.94 | P 2.59 | M 2.61 | E 3.19 | K 2.73 | Y 2.46 | L 2.4 | G 2.95 | V 2.4 | D 2.9 | H 2.33 | C 2.14 | S 3.4 | F 2.23 | W 2.25 | A 2.97 | T 2.67
R10: S 2.82 | W 1.71 | I 2.92 | P 2.56 | H 2.55 | A 2.6 | K 2.71 | G 3.44 | Q 3.38 | N 2.93 | V 2.24 | E 3.07 | F 2.83 | D 3.66 | L 2.67 | C 2.66 | T 3.23 | M 2.9 | Y 2.72
N16: Y 2.82 | T 2.89 | R 2.63 | G 2.5 | D 2.15 | C 2.14 | I 2.7 | A 2.5 | F 2.23 | M 2.71 | Q 2.87 | L 2.49 | S 2.92 | E 2.89 | W 2.21 | V 1.94 | K 2.9 | P 2.31
F11: D 2.99 | H 3.05 | P 2.97 | E 3.16 | S 3.18 | N 3.33 | K 3.13 | A 3.43 | Y 3.32 | M 2.55 | C 2.58 | W 2.2 | T 3.28 | I 2.59 | Q 3.41 | G 3.32 | L 2.35 | V 2.59
G9: Y 3.75 | R 2.85 | W 2.15 | T 2.7 | S 3 | P 2.41 | V 1.72 | Q 3.28
I24: C 2.9 | Y 3 | A 3.43 | R 2.86 | P 2.29 | K 3.22 | L 2.78 | V 3 | S 2.77 | D 2.6 | T 3.42 | W 2.3 | H 2.93 | G 2.64 | F 2.71 | Q 3.08 | M 2.57 | N 3.54 | E 3.13
K21: H 2.73 | Y 3.23 | V 2.2 | Q 2.59 | F 2.09 | C 2.45 | L 1.95 | G 3.16 | P 2.61 | W 2.17 | S 3.05 | N 3.23 | I 2.38 | M 2.08 | T 2.97 | A 2.78 | R 2.85 | D 3.11 | E 3.1
K14: T 2.27 | P 3.18 | A 3.21 | F 2.55 | V 2.42 | M 2.7 | I 2.96 | C 2.41 | S 2.65 | N 3.48 | Y 2.89 | E 3.65 | R 2.8 | L 2.82 | D 3.63 | W 2.34 | Q 3.1 | G 2.92 | H 2.51
S18: V 2.62 | I 2.88 | W 2.22 | D 3.07 | L 3.16 | T 2.72 | R 2.82 | F 2.71 | A 2.55 | K 3.1 | C 2.76 | G 3.53 | Y 2.02 | Q 3.03 | H 2.34 | P 2.48 | N 3.87 | M 2.77 | E 3.63
E12: K 2.91 | D 3.26 | Q 2.3 | F 2 | R 3.88 | Y 2.46 | C 2.8 | A 2.49 | I 2.34 | H 3.09 | M 1.87 | V 2.16 | N 3.1 | W 2.3 | T 3.16 | S 2.85 | L 3.59 | P 3.11 | G 3.16

Variants of: B2
Assay: as above
Details: c terminus: a fixed tail appended

Protein stability index: each site, then its substitutions
V3: E 3.47 | H 5.16 | D 3.92 | F 1.89 | C 4.46 | G 3.01 | A 2.81
Q2: M 2.93 | E 3.37 | H 3.05 | V 3.17 | N 2.26 | A 2.94 | C 4.17 | L 2.4 | W 2.72 | P 2.77 | R 2.59 | Y 2.37 | G 2.32 | D 3.15 | K 2.59 | I 1.45 | S 3.77 | T 2.61 | F 2.17
Q1: D 3.69 | S 2.57 | N 2.91 | L 2.62 | H 2.59 | V 1.11 | G 3.05 | M 1.83 | E 2.67 | P 2.79 | I 1.9 | A 1.95 | C 2.4 | Y 1.64 | W 1.98 | T 2.52 | R 2.24 | F 1.49 | K 1.88
